This data set in a line: Stabilization of insulin suspension in 100% ethanol, activity retained by reversed phase HPLC. Format: physicochemical. As to conditions: pH 7.4. Here is the method: The conical tubes were then sealed with punctured parafilm, and frozen overnight at ˜−15° C. to −20° C. […] This process was started two or three days prior to the start of the experiment. […] For each sample, there were four (4) time-points prepared. […] The diluted samples were then analyzed by reversed phase HPLC method using standard techniques known to the art. The other time-points were sealed with parafilm. Four (4) different conditions were tested: (i) & (ii) samples were maintained at 37° C. with and without shaking; (iii) samples were maintained at 40° C. with shaking; and (iv) samples were maintained at room temperature with no shaking. A Labline environmental incubator/shaker was used at 37° C. and at 40° C. while shaking at 220 rpm. […] Inversion was used to gently mix.
Percent activity retained was determined by high-performance liquid chromatography (HPLC).

As for “Insulin: Lyophilized human insulin, supplied from Roche Biochemical Co., suspended in 200 proof ethanol”, the “Activity Retained (%)” value reads like this: (2.0 months, 20 °C, shaking NA) 90%; (2.0 months, 40 °C, shaking 220 rpm) 55%; (2.5 months, 37 °C, shaking NA) 93%.

The values are drawn from patent publication US20100239676A1, “Stable Aerosolizable Suspensions of Proteins in Ethanol” (priority 2000, published 2010).
